Source: article PMC12648486, “A LisH-domain protein interaction map reveals a Lis1-ARIH2-dynein regulatory axis” (iScience, 2025)

Target: T1, MBP-ARIH2 (UniProt O95376 1-493)
T1 construct: RBR-type E3 ubiquitin ligase ARIH2, cloned in this study into an MBP-tagged Gateway vector; source: E. coli BL21 (DE3), purified (Dextran-Sepharose, maltose elution)
T1 sequence (looked up): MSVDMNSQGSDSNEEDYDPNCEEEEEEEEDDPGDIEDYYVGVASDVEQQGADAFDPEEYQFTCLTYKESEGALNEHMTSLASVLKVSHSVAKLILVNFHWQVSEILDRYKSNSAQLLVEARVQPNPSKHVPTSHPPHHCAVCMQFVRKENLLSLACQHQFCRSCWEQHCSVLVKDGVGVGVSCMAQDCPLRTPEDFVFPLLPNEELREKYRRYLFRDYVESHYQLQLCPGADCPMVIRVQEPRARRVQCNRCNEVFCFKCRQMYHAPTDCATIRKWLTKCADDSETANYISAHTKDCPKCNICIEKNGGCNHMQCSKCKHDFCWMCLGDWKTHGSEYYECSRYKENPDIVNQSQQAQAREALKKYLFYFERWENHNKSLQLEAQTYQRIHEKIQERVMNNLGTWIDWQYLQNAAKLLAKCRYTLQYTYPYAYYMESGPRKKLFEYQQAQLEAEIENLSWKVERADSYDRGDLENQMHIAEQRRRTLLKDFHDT
Assay: pull-down; bacterially purified recombinant GST-tagged protein incubated with purified MBP-ARIH2; eluates immunoblotted with MBP antibody
Settings: both partners purified

B1: GST-Lis1 (natural protein, human, UniProt P43034 1-410, looked up)
chain: MVLSQRQRDELNRAIADYLRSNGYEEAYSVFKKEAELDVNEELDKKYAGLLEKKWTSVIRLQKKVMELESKLNEAKEEFTSGGPLGQKRDPKEWIPRPPEKYALSGHRSPVTRVIFHPVFSVMVSASEDATIKVWDYETGDFERTLKGHTDSVQDISFDHSGKLLASCSADMTIKLWDFQGFECIRTMHGHDHNVSSVAIMPNGDHIVSASRDKTIKMWEVQTGYCVKTFTGHREWVRMVRPNQDGTLIASCSNDQTVRVWVVATKECKAELREHEHVVECISWAPESSYSSISEATGSETKKSGKPGPFLLSGSRDKTIKMWDVSTGMCLMTLVGHDNWVRGVLFHSGGKFILSCADDKTLRVWDYKNKRCMKTLNAHEHFVTSLDFHKTAPYVVTGSVDQTVKVWECR
notes: Lis1 (PAFAH1B1), human, in a GST-tagged Gateway vector; source: E. coli BL21 (DE3), purified (Glutathione Sepharose)
- binding result: binds
